# Assay results from the domain aggregation screens of Martell et al. (2025).
# Assay: soluble fraction after stress (log2 fold change); higher = more stays soluble; pooled small domains, quantitative proteomics
# Conditions: stress: 75 degC
# 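Note: 20 min heating vs room temperature control held 20 min.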
row,Sequence,soluble fraction (log2)
1,HMIHIGAQEALGEFQDEEGNLTASKKEVVAALVKKSKEVSFPTSYEYEVAARMAADEYNDAGQRMA,0.167
2,HMIHKTDAINLGQRLLKSSLKEFDVSLKDIPNKTLMYILSEYKFNSLDDLYREIGLGNVIPKLVALRMAP,-0.585
3,HMIHTYVETRKVGNNDGLIRVDNKYYRVPQHLVGMKVQIQIDEATISVLQGGVMVATLDKTADVFNPQA,-3.24
4,HMIIDPQIRTLWTSQIIDILKSNPKRSIRSILELYPSNKESWVLIILQELIGEEKIIRDLDYLYFNK,-1.79
5,HMIIIMKMGADESQVQETIKRIKDLGFNTHLSKGENRTIIGVIGDVSSIDESDVERLRATPYIAEVVRVS,-0.455
6,HMIIIPKKDYDVSQLDNLVSWLKDRGLEVHISRGENLTVIGLIGDTSKIDIDLIRSLDVVEEVKRIQ,-0.749
7,HMIIVMASSKKEDVAHVVHKIEELGYKAHVIVGVERTVVAAVGDERGKERLISLEALPHVEKVFPILK,-2.16
8,HMIKEVEYSQFLQMTDQGEVGKVEINEQENSILFTDKAEKNIYKTGMVEDAELSMRLYEAGIPFSGQI,0.101
9,HMIKEYEVLNYVTYEYDEIKKKLEEDFGIIVLMKEAYSDETPAGIIMDQDVEQGRIFKEGATNTITFTVS,-0.582
10,HMIKLSEAEWKVMKLLWEESPKTMMQITNLLKETTGWTKHTVMTFLKRMEEKKAIHYEEGGRAKLYYP,-0.863
11,HMIKVASVDGASDELAHEIREIMPLDFPVSYFDLDIKYLHKVLNDIPAVESAAIKVTVSGVLQIDISER,0.569
12,HMILALAISSEEDDARIYATYADRLREAYPASARVFEGMVDEEHEHRRRLIDLFQRRFGDTIPLVRREHV,-0.446
13,HMILNPADEEKMNLINFELQQRGLEINDKEMQYIFTHHSRDLNSLLNLAEKLDEISHQEKKSISINLIKKI,-0.0616
14,HMILNWSEYTRSEIIELARDLSPDKYMIIDDINTYSKMKLLPSQAFIAEMFGSLRQFQKEAWGRE,-1.62
15,HMILPKFNQLLGQMGENIKLARKRRKLTAVQVSERAGIARSTLYLIEKGDASVSLGAYFNVLRVLG,-1.67
16,HMIMEVDYGTFMKMTEENAIGRVQMDSTEIIFTDKENTQVYSTGIMYDPDLTQRLYDAGAVFA,-0.536
17,HMIMGTIEKRGPFSFRIGVQVRLPDGSWEWIRDTIHVSPDLSARAARKQAEMALARLEADVYEGKRKPD,-2.18
18,HMIMLDRILKIMDYNKFTPSEFADVLEIDRSRLSHILNGRNKPSLEIVMKILEKFPEISSDWLLFGSGNML,-2.73
19,HMIMNEYEELRDRYLIGQIWKIGDLIEAKGIEGKIIQRGTNYVTFNDNNGKVHKAWLHEIKYEQ,-0.433
20,HMIMNKEIPVVADEFVEKEFGTGAVKLTPAHDPNDYESGERHGLEVVEVFDETGKMNDLVPEYEG,0.757
21,HMIMTGSIQEKNGKYYTVLNIKDKNGKYKKKWQTTGLPVKGNKRKAEQILRRRIAEYEANQL,-0.861
22,HMIMTHSALLEKDGFDIVKVHFERPNDDGFDFLDMTLPGEIVYKSFGFSEDEILKLKRYAKNNSSLIWDF,-2.5
23,HMINEDMTQSDRMELWGRLIDVVEDWLAEKGITEEDIPNEEREGVEDAAIIFGDDYDYLADRFSEVIGISR,-1.2

row,Sequence,soluble fraction (log2)
1,HMINFKVKNVQDVGSRLDKFLVTNIPEFSRSKIQKHIKNGKVMVNGLLKKTGYKLEINDEINILNN,-0.521
2,HMINLDYILELIFEKNNKTKDKTALIEEIRGVIRASVGNRAKESLIVDFINDTDLDTITDKASIIESFFEY,-2.97
3,HMINLTKVGNFISIIKLQQIWTIDELLKKVDINYDELLYLLTILSDIYSKNGEYFFDFDIDAENNKILFNN,0.0266
4,HMINVGYKFKQIRENAGLTLKQVSAMSGLSVSFISQIERGVVDPSWSSLKKISAALNIKLKDLF,-2.82
5,HMIPDLPAIGENLYRERKRQQLSMAELAAASGISKAMLSQIEADKVNPTIATLWKIAHALHVDLESLISGG,-0.965
6,HMIPDPEKVMFDGGIRLLTQAGITEGKARSILGKWKRDHETERIIAALGAAQREGAIEPVSFIERVLRN,-0.24
7,HMIPKIIDITDLNEEVREVIEEYMKRKRVEKYHIYQDSKGQIFIISGSAIIRYDSKLNNLYYL,-2.45
8,HMIPLKTEAIPVSYGDGAAIIRSLAVAFPSRTFHWDAQTRRIIGQALDEEWQVIRSLVWQLDIP,-1.83
9,HMIPLSDEETILLKLLEATETHLDALIRGSQLSAAKVSVVLMGMEMKRLVKRLPGQMYQRWD,-2.13
10,HMIPRNLEDLVRENQIGLVILKIVEIIGEDNIRDLDPETIYFINRILNELNLKKIRNNILSEALPPR,-1.36
11,HMIPSEQYNTALTEIGLSTRAHNSLRRAGIMTLGQLIEKTRDGLPPLPGFGDKSQVEVQDLLTGLGYPI,-0.187
12,HMIPSGISEHPISKLPLSMSIIHRLELAGIKTIGDITGENFSRLQEIPRIGKVTAKRILEAIQSYSEQLP,-0.401
13,HMIPYQDPLPKGAEESLLSKYPGFEITGVHFVNDTNFIGYKVRLERGEDREEISLDVNGKFL,-0.308
14,HMIQADFIPQVEQRLADRGLSMSGDVMAAFLDRAGYGLRHVSNEIEKLSLYLGDRKKVTVEDVVQMVAPVR,-0.381
15,HMIQAGDLVFIWNPKKGDNFLIKVTPGMSQGTHFGQIKHTELMEREYGEGIVTPKGEVYYLLRPTLAGYTR,-1.21
16,HMIQIGEQIRYYRTKIGISQEALALMADINPAYIGQIERGIKSPTVNTIKKIANAMGINLHTLFT,-2.94
17,HMIQKTHPALEIVKEYFSSQAASEFEAERFFNYYTSNGWLIGGKTKMKDWQAAARNWILNTAK,-0.999
18,HMIQNEITLMLQVNGKLRGQIQVPSDASKEQIEQLAKDSEAAQKALAGASPKKIIVVPGRLVNIV,-0.792
19,HMIQQFTYAFAKDKGVVVLPGRDVLTLGMRAGADPLVLLEARRALGSSFELEPLDRDTYERTLADVFTADA,-1.39
20,HMIQRLNVNTEVLSTYIRNSNTPIEYLRQKLPNIDKFLKGELEPTFNQVYALSKLINIPTGLLLLKEPIS,-1.86
21,HMIQSEQIPFSKFLKEVDSGRVVQVEIQGNNINGVLSDGSKFKTYSPNYPELVGKLSDKGVSIVASPV,0.091
22,HMIQTKNVTFTINEKTKIANIPLKSLKILSQEDNRITLSYEKNSLKIDEIISYFSDKNINILDITTD,-1.59
23,HMIQYRKILELHFKDISQRTISTSVGSSRNTVSDVIKRSEQLGLERLTDNMNNRWLEEFLFPEKQ,-4.15

row,Sequence,soluble fraction (log2)
1,HMIRALVPGQTLHGEIVGRNGGEVQVRLAEDMILNARVDQNIYLELGKDLTFEVKNNGATLTLSPL,-0.42
2,HMIRDTTMYPVSVNGKKRYEWTVSKSISDDELKQQVLELEEIKKWIEGHEIKKLIFVPGRAINIV,-0.696
3,HMIRDVDYNTFVSMVQEGKVGQVEIQEQNNRILFTDKDERTVYKTAMVPDSDLISRLLEAGVSTS,0.359
4,HMIRTGEVVTGKVINVKEDQIILNIGFKSDGIITRNEYTNDNSLDLRTVVHEGDEIEAKVLKVNDGEGQVV,0.401
5,HMIRVGRPQYKRGEFVSFDFDNGRKKTEMYGRVDVIDSYGTFGQGREVSYDIRASDGILYKHIPESSVYGF,-1.17
6,HMIRVVSIEDQPWFVAADVLKSLGMPTDKGVGKYLLALGSDERMLTTHGQIGGKGMAVTTIISESGLY,-0.67
7,HMISDAEWKIMNVLWEEQPRTMMQITKELQEETGWTKHTVMTYLKRMESKKIIHYVEGEKAKLYYS,-0.133
8,HMISDDLYQAVLDFTLTQDTISISRLQQNFNLGWPRARQLYDQLMQNGIIEPPDEANSAKGAVVIANKRG,0.697
9,HMISIKEAVFPFSRFPGVDTLLGPEMKSTGEVMGLADNFGHAYAKSQIASGSKLPESGTLFVSVKNSD,-0.467
10,HMISKRFQIDEENAHKRIDIFLSHEFDSISRGIVQELIVKGEVLVNDKVTKRNYKLKTGDLVDITINL,-2.98
11,HMITDQQKEQLSSLLKQAEAALAKAAANDQVLAAHKDEAVELLKSTSATSADAADLINELTELLKPYQ,0.973
12,HMITEDQVIARIGLLSPAEKSLLKDKLERFRRLTLSEQQHLREFHSALDNHDKRTDLLNVLRKYNDWVNQL,-1.99
13,HMITEQEFQRVAAYVKNKAGINLNEKKVLVQGRLDSYMQRKGYSSYDEFMDRVERFPTGPEAEDLMNALTT,-0.0412
14,HMITFRINQQSQVGLRLDKFIVQQMPDYSRTRIQSWIKTKNILVNGEGKKSGYALEFDDLVEVTIPE,-4.81
15,HMITGREMDVLEALWSSEKPLVASDIPKMKPSLSISSVQLALRNLVKKKLVEVADIVYSGTVLSRSYRP,0.0724
16,HMITIDNYFNKEKELDFSSFPEALRKGHGFVSKATAHGSSWVSYHSSDAIKKTIDIYLSKLNEYLSNNAKA,-1.08
17,HMITLYDLLGVSKTASSQEIKTAFKKKALQYHPDKNDGNPDKEEIFKRINMAYQVLGQPQSRANYDFSITP,-0.483
18,HMITNMIIIMKPNASEEAIEKVKHLIESKGLQAHLSKGDEVTIVGVVGDKTRLHDSNIEISEGVDKIVNVT,0.497
19,HMITPAGVPPALLPVFDQFTLPDGTLRRGAVAAALRALYGPDAPQSGKRYQMEYDRVMAWHSQYFTSLH,-0.759
20,HMITPKQTAETLGIATSTLRRWASEFEPFLSLRTGVKRTYTTDDITTLKRVKDLFAQGLKTEQVREAL,-0.287
21,HMITPNQAAVTLKVSTSTLRRWSSDFEPFLSPRKGVKRLYTIEDIATLKRIQGLYKQGMNTAQVQA,-2.25
22,HMITQQEFQQKLEALLSRAEAESFHIKKEEAESFFSGDELTGEQMKLVFDYLLSKKIIVEGYLK,-0.918
23,HMITTEEVLNRIRKKVDHPATIRELQKALSIADDDRHRFRRRIRTLVASGALVRIRGNRYGLPSK,-0.213
